Measured values from patent publication US20170198056A1 (MEDICINAL CHEMISTRY PHARMACEUTICALS, published 2017).
*: point of attachment. αGalNAc = CC(=O)N[C@@H]1[C@@H](O)[C@@H](O)[C@@H](CO)O[C@@H]1*

Experiments:
[1] = biological target: T1, Compound 13: … (human); experiment: glycopeptide microarray, Cy3 anti-mouse IgG
T1 construct: also called glycopeptide in which Tn has been modified in the tandem unit peptide of MUC2
T1 peptide: {5‑oxohexanoyl}-PPTT(αGalNAc)T(αGalNAc)PSPPPTSTT(αGalNAc)T(αGalNAc)LPPT-NH2
Experimental: (§1) A substrate for an immobilized sugar chain array (made by Sumitomo Bakelite) was treated for 2 hours at 37° C. with 2 M HCl and the t-butoxycarbonyl group (Boc group) protection was removed. The product was washed twice with water and then dried to place aminoxy groups on the surface of the substrate. A spotting solution (25 mM AcOH/pyridine, 0.005% Triton X-100, pH 5.4) was added to the various synthetic glycopeptides shown in Table 1 to dissolve them. A spotter (BioChip Arrayer, made by Cartesion) employed a spot pin (CMP, pin diameter 0.4 mm, Arraylt Corp.) to spot the substrate. A reaction was conducted for 1 hour at 80° C. to immobilize the glycopeptides on the substrate. Washing was conducted once with water, the product was immersed in 10 mg/mL succinic anhydride, a reaction was conducted for 3 hours at room temperature, and the unreacted aminooxy groups were protected. Washing was conducted twice with water and the product was dried.
(§2) The reaction supernatant was diluted 10-fold with the reaction solution given below. A Hybricover (made by Sumitomo Bakelite) was placed on the immobilized glycopeptide array, 70 μL of the diluted solution was spread out, and a reaction was conducted for 2 hours at room temperature. […] Fluorescent intensity of Cy3 was measured with a scanner (Typhoon TRIO+, GE Healthcare). […]

[2] = biological target: T2, Compound 15: 5-oxohexanoyl-Ser-Ala-Ser-Thr-Gly-His-Ala-Thr(Tn)-Pro-Leu-Pro-Val-Thr-Asp-Thr-Ser-Cys-NH2 (human); experiment: glycopeptide microarray, Cy3 anti-mouse IgG
T2 construct: also called glycopeptide in which Tn has been modified in the tandem unit peptide of MUC4
T2 peptide: {5‑oxohexanoyl}-SASTGHAT(αGalNAc)PLPVTDTSC-NH2
Experimental: as §1, §2

B1: Monoclonal antibody SN-101 (antibody, V domains shown)
VH: EVNLEESGGGLVQPGGSMKLSCVASGFTFSNYWMNWVRQSPEKGLEWVAQIRLKSDNYATHYAESVKGRFTISRDDSKSSVYLQMNNLRAEDTGIYYCTGGVFDYWGQGTTLTVSS
VL: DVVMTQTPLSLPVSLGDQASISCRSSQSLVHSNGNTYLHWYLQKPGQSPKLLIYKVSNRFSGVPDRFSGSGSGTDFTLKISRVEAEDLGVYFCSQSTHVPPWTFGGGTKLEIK
notes: Mouse monoclonal antibody from a hybridoma; it was purified on Protein G and detected with anti-mouse IgG; The array assay used culture supernatant diluted 10-fold; also called antibody of hybridoma strain 3A9-4B1 (NITE BP-01845)
binding result [1]: no binding | binding result [2]: no binding
